Assay results from the DeepSol protein solubility set.

assay: soluble on expression in E. coli; label from the status in PepcDB or PDB records

Soluble on expression in E. coli, not soluble:
MGSDKIHHHHHHMRAEIRNLNVKGGHYYLELAEKDADTDKVIASCKATIWKFSASKIVLKFERETGIELASDLNVLIKIRARFDPQYGFSVNIEEIDSSFTLGEIAKRYQQIVERLTQEGLIHKNKLLPTPFDIQNVLVIAPQNAAGLGDFKKDADALERNGVCHFVYQSATFQGNTAAVSLMESLATGLKQWANNFNFPPDLIVIIRGGGAVNDLAYLNDYELAALLCKRSVPIWVGIGHEKDRTILDEIAHRSFDTPSKVIAGIRNHIVERVQEAVDNLQTIKLLSQHQITTYQSKSDQYLQHIKSSAQAQLNSAHQFLEQIKERIQFVSQQQVKFSLSQTESLMREILLQNPKQIQAKGYAIVRSEGKAIRSIHQITNSTITVDMQDGAINANITEVIPNE
MGSDKIHHHHHHMRDLLQRPDLFSINTATLGYKTPLPAIIDACAARGIGAIAPWRRELQGEDLQQITRQLAASNMSVSGLCRSTYYTAPTLAERKLAIDDNRRALDDAAVLNAACYMQVVGGLPTGTKDLYEAREQVKQGIRQLLPHSKDVGVPIALEPLHPMTAADRSCLCTLRQALDWCDELDPDGEFGLGVAVDVYHVWWDPDLASQILRAGKRILAFHVSDWLMPTTDLVNDRGMPGDGVINIPSIRRLVENAGFNGAIELEIFSPYWWQKDINSTGNDSNLLIVFYVQIMPDDLVMQLHRF
MGSDKIHHHHHHMRDQADRLREMALNLKQEIEAEIRRDLRYSRVVVISSGKGGVGKSTLALNLSLNLCARGMKIILMDADMGLANLDVMLGLVTKFNIYHIVQQKKSMEEITISGPEGLKIIPGGSGISELANLENTELKRILVELRKLDGAYDYMIIDTGAGISKSVMNFLLAAEDIIVITTPEPTAITDAYSLVKNVAKNSFAGSIYLVVNKVANDSEGILVAEKFKLVCQKFLSCEIKPLGHIVNEPLIGEGIRRQKAFVQIYPRSTATRNINTIVDRLIEASGQKSPGLESKRGGIRYFIEKIAGLVK
MGSDKIHHHHHHMREAMYWKPLGDGRVRCELCPLRCIIDEGKRGSCKIRINKGGKLYTLNYGKVSSIALDPIEKKPLFHFWPGSCALSIGTVGCNMHCKHCQNWEISQADESFPYLQDATPEAIVSLAKHYECESIAYTYNEPTIWYEFVLDTAKLARKEGLNNILVTNGYINEEPFRELAPYIDAMNIDIKAFDDKFYMKIASVPSGEPSRRIAEIAKKEFKIHVELTYLIIPTLNDKEEEIREFARWVVENLGDDTPVHFSRFFPHYKLLNLPPTPIETLEKAYKIAKEEGLKFVYLGNVPGHPGENTYCPSCGKLLIERWGFDIIRYDIVDGKCKYCGEKIPIVGKYQKKKYRGMWW
MGSDKIHHHHHHMRERAAVPPRAVQHSDDVAMVLRMDQPDFIQITDDAVSRDDCAAIVQRMRDSQQLQPGRIGSGVFPDLKHSRDLRISGLADWAAVENRLQQAVFEGLLRYLRQYPQALISPLMLQVTTADGTPHRLVAEDIAQMSDAALSDLARTCLRPGAINLQWYLADQGGYPYWHCELYPRDAGAETLHRHLLWTLYLNEEFEQGETEFLFQQRKARPRTGSLLIAPTAFTHTHRGNRPVGGDKFIATSWILFQSAQALYGGE
MGSDKIHHHHHHMRGTIMDDLNDLYYFVKVVEHGGFTQAGRALGVPKSTLSRRIAALEAQYDVRLLQRTTRHFTVTETGREFYDRCLGVLVEAEAAREVIERKHAEPQGIVSLSCPTALLEYRVSGLVARFMAIHPKVQVHLEATNRRVDLLSEGIDLALRVRFPPLEDSGLVMRVLGDSPQRLVAAPHLLGGRDLPTSPDELAGVPSVDWGPPRHHLWQLVGPQGVEAQLRHHPRFITDDMHALRDAALHGVGIAQLPCMVVEDDLRDGTLVDVLPGWVPKGGVIHAVFPSRRGLLPRVRLLIDFLAAHIQKD
MGSDKIHHHHHHMRHFIYQDEKSHKFRAVEQQGNELHISWGKVGTKGQSQIKSFSDAAAAAKAELKLIAEKVKKGYVEQAKDNSLQPSQTVTGSLKVADLSTIIQEQPSFVAETRAPDKNTDAVLPWLAKDIAVVFPPEVVHTTLSHRRFPGVPVQQADKLPQLRRLACSVSQRDNKTATFDFSACSLEWQNTVAQAISQIDGLKTTQLPSPVMAVLTALEMKCTRYKVREDVMDQIVQEGGLEYATDVIIHLQQIDIEWDYANNVIIILPSGIAPSYLEQYSRFE
MGSDKIHHHHHHMRIFTASLATETNTFSPVPTDRASFEMAFYAAPGKHPETPTLCSSPIVALRKRAAAEGLTVIEGTATWAEPGGLLQRQAFEELRDEILDQLKAAMPVDAVVLGLHGAMVAQGYDDCEGDLLERVRAIVGPGVLVASEFDPHSHLTPKRVQNLNIFASFLEFPHTDFYERGEHVVELALDALKGRTKPVISTFDCRMIAVLPTSKEPMRSFVDRIKALQGKDGILSISVIHGFMAADVPEMGTRILVVTDNDPQAGAALAAALGRELIAMREQTSMAMLDTDQGIDRALAAHAANPSKPAVIADVWDNPGGGVAGDGTYILRRLIERGVNNAGIATIWDPIAVTFCHAAGEGAVIDLRFGGKSGPLGGEPIDARVTVLKVANEGWQSFGPSRVTLGPSAVVRIEDTGIDIILNTNRTQTFEPDIFSNLGIDPMTKNVLVVKSTNHFHAGFAPVAAEIIYVDAPSSYPSNPRTTNYRKLNRAIWPRVEDPW
MGSDKIHHHHHHMRIILYTGKGGVGKTSISAATALQSAKQGLKTLVMSTDPAHSLGDSFGIKLSSEPLEIRENLWAQEINTIYEMEKGWGKLQKYITLLFTSKAADDITTEELTMFPGMEDLISLLRVLDYYKQNTYDVIIIDCAPTGETLAMLSFPDMLGWWMEKLFPIKRKVLKVVRPVAQPLLGVPLPTDDIMDELTNTLEQLGEMRDILSNRDVTSIRIVVNPEKMVIKEAQRSFTYLNLYDYNVDAIMINRVIPNTVIDPYFQAWKDTQKKYKTLIQNSFDPLPIYEAPMFEQEVVGLPMLERVGDALFKEDYCPTEVKFNGRTQYVKKDGDEYIFVLSIPFSNKSELALNQKGDELIIRAGSVKRNITLPKTLTHLSIQGAKFEDDVLNIRFGGVVHA
MGSDKIHHHHHHMRKFKIPNMGALVAFEAAARHESFTHTAKELFLTESAVSRQIATLEASLGVRLFARVKQRVVLTRAGKLYGTQVRRALEALDRDTLSIIAHGSGGGYLELAVLPTFASHWLIPRIKSFYDRTPDVRVNMGSRTDLFSFEDTHFEAAIHYGKPTWPGTSSDYLFGEEVVPICSPALLDGPVERVEDLLAYPLLHSTTRPGAWAQWFETHGVEDIRTMQGVRYELHTMLISAAAAGLGIALVPKFFVEEQLQQLGLVVPCDAATVGDSAYYLVYPTELSHSKPLESFRAWLLEQASAYAAPGRDGEEDDLDAEDDEDVE
MGSDKIHHHHHHMRKFNLTALSVMLALGLTACQPPEAEKAAPAASGEAQTANEGGSVSIAVNDNACEPMELTVPSGQVVFNIKNNSGRKLEWEILKGVMVVDERENIAPGLSDKMTVTLLPGEYEMTCGLLTNPRGKLVVTDSGFKDTANEADLEKLSQPLADYKAYVQGEVKELVAKTKTFTEAVKAGDIEKAKSLFADTRVHYERIEPIAELFSELDPVIDAREDDFKDGAKDAGFTGFHRIEYALWVEKDVSGVKEIAAKLMTDVEALQKEIDALAFPPGKVVGGASELIEEVAGSKISGEEDRYSHTDLSDFQANVDGSKKIVDLFRPLIEAKNKALLEKTDTNFKQVNEILAKYRTKDGFETYDKLGEADRKALQASINALAEDLAQLRGILGLK
MGSDKIHHHHHHMRKMAVQKLPEKDFFAPLKAWKFLVRKPVTIEVPNKIRREASERYRGFHVNDWGKCIGCGTCAKICPTDAITMVEVPDLTQEDGKLPQRPVIDYGRCSFCALCVDICTTGSLKMTREYIHISEDPEDFIFMPTDKGLNAKKGLYEFGKAPLGWVRDENSELLDLERIEMPVEPPEVRIKSFIEIVKGYSREQAMQEAARCVECGVCTYTCPEHMDIPQYIKSVYEDNLEEGLRWLYRTNPLSMVCGRVCTHRCETACSVGVRGEPVAIQWLKRYIVDSIPLERYGEILDIKPERKGKSVGIIGSGPAGLAAAYFLATMGYDVTIYESESKPGGVMRYGIPKYRLPDEALDKDIAFIEALGVKILLNTRVVQDVSFEDVRKRHDVVFLATGFGLGRSTGVPGTDHPDVKQALPLLKMIRDYLRGDGPKPPVPERLVVIGGGNVAMDISRSMARLQFMEYGRVNVQVLSLEGCFEDMPADMEEIEEALEEGIVINPGWGPMEVVIENDRIKGVKFKKCVSVFDGEGRFNPQFDEKEQIFVEADMVVEAIGQAPDYSYLPEEIRSKLEFFRGRIKTNEYNQTSVEWLFAGGDIVHGPDIIHGIADGYAAAKGIDMYLRKEK
MGSDKIHHHHHHMRLAAATGFSFVGLRVIAVTPNERVYDLSPGSPLLAATQQALKETALYVLDTEFLQVNADTTREAWLPALEAAGALGAKTFTIAAGDDNIAPLTDTIGAMVDDARDFGVTPALEPISYRSVHSIPQAAAIARDSGGKVVADTLHMARFGATPEELTDVTDVLGVLQLCDSPLQRPADLDGLVTESRSLRLAPGEGEQNLLTFVNALDSNVPLSVETPNDGEVASRGDAGWINHLYNTTQALLEKIEEAV
MGSDKIHHHHHHMRLHSPSMSELHAFVAAARLGSFTRAADTLCVTQGAISRAIARLEEHFGQPLIQRNAHRLTLTGAGQQLLDAVAGPLAAIEHASAALRAGDRSHHLTLSAVPTLASVWLVPRLPDFHRRHPDIRLDFVPYRRDEDFSGAAPDAALLAGEPGKWPGLQVDYVVGREMVPVCHPDRARQRHAAGRWREPAELMDEPLLYHTTAPANWANWLQAAGVPNAAPKLSSGFDQVSILVQAVRADMGIAVLQRCLLHDELAAGRVVAPFDLPIRLQRGYFLCSPRERRDHHALRCFREWLLETAAQDSGT
MGSDKIHHHHHHMRLLDLYLTLRLALSTAVHTLAGRVKGRSYVPHPRTMLFIEPTSHCNLECSFCTYRLDRHPRLTLDMERFEDYVAQARAMGFADMVLTPINGDVFMDRTILDKLRLLDRLKDGPGIILYTNLIGASAEQLGEILALARLKMFQVSIYGHDFETFRRITGRGQVQFRRLLANLETIADLVAQGVVPQALSICVRTERHYRLEDEASGELHVLLRRLISLGIPVSVQSCLDDWGGLVAETDLDGLDMPLIRGRLIPKNGACIEPFYNVQILADGRVNACACRSVGEDLIIGDLRQDDLKTILSARNPAYTGLIERQQKGDFPQTCRGCSFYRSIYDRRIRNASPLGHMSLEQFHTFLSRE
MGSDKIHHHHHHMRNIPDQEEYFALLIEFDFEDFNDLPQNAGTSQNYVQGQLNPLLESALHQFIDFSLVAPPSAFKFRKRELLELIYYSGYTAIAKLNMNKSLSERVQTLISYHLSTELTAEFIAAQLFMSSSTLRRKLKSEGNSIQDIRNRVRLGHGLHLIQTTNNSIGNIAFECGYQSQSRFTEQFKNLFGITPRELRKTKMLT
MGSDKIHHHHHHMRNIVKRFGSLVANDHINFEVKRGEIHGLLGENGAGKTTLMNILYGIYQPDEGEIIFEGKKVRFKSPKDAISAGIGMVHQHFMLVPRMNVLQNIVLGYRTPSDPLINHRWVEERIERLSEKYGIDVALYEVIMNLSVGEEQRVEILKALFRDVKLLILDEPTAVLTPQEVDSLFYALKSMTKSGLTIIFITHKLKEALKVTDRITVLRRGRKVGTVITSETNERELTRMMVGRDIVLDITKPPSTPGREVLRVEDLWVRDERGNYAVKGVSFSIREGEIFGIAGVSGNGQKELEEAIAGLRKVERGRIILDGKDITAKGVAEREDIAYIPEDRIGVGLAPSLSVLENLMLKDFKKYKKRFSLNFEEMEKRAMSLVEEFSVKTPSLHSPAGTLSGGNIQRLILARELSRNPRLIIASQPTRGLDVAGIDYVRRRLIEAAMRGSAVLLISEDLDEIFQLSDRIGVMYEGEIRGIVDRKNANYEKIGYLMAGGLEVAA
